Assay results taken from PMC8828050, “Covalent inhibition of endoplasmic reticulum chaperone GRP78 disconnects the transduction of ER stress signals to inflammation and lipid accumulation in diet-induced obese mice” (eLife, 2022).

Assays:
[1] = target: T1, Recombinant 6xHis-tagged human GRP78 protein, biotinylated, saturated with 10 μM celastrol (human, UniProt P11021 19-654, biotin (EZ-Link Sulfo-NHS-Biotin); celastrol covalently bound to Cys41 (mapped on recombinant mouse GRP78)); test: SPR; as a1, but the GRP78 chip was saturated with 10 μM celastrol before the peptide; peptide 1.56 to 100 μM; steady-state analysis, 1:1 model; n = 4; details: both partners purified
T1 construct: 78 kDa glucose-regulated protein (GRP78), human, recombinant from Abcam; Same protein as m2, after saturation with celastrol; The covalent site Cys41 was mapped by LC-MS/MS on mouse GRP78 made in E. coli, not on the human protein on the chip; also called celastrol–GRP78 conjugate; GRP78-coated Sensor Chip saturated by celastrol; source: bought: Abcam; saturated on the chip with 10 μM celastrol

[2] = target: T2, Recombinant 6xHis-tagged human GRP78 protein, biotinylated (human, UniProt P11021 19-654, biotin (EZ-Link Sulfo-NHS-Biotin)); test: SPR; biotinylated GRP78 captured on streptavidin Sensor Chip SA; peptide 2.5 nM to 320 μM flowed at 30 μl/min, 25°C; 10 mM HEPES, 150 mM NaCl, 3 mM EDTA, 0.005% Tween-20, pH 7.4; steady-state analysis, 1:1 model; Biacore X100; average of four runs; details: both partners purified
T2 construct: 78 kDa glucose-regulated protein (GRP78), human, recombinant from Abcam; Captured on the streptavidin chip through the biotin; No Abcam catalogue number is printed; also called 78 kDa glucose-regulated protein; biotinylated GRP78; source: bought: Abcam
T2 sequence (P11021 19-654): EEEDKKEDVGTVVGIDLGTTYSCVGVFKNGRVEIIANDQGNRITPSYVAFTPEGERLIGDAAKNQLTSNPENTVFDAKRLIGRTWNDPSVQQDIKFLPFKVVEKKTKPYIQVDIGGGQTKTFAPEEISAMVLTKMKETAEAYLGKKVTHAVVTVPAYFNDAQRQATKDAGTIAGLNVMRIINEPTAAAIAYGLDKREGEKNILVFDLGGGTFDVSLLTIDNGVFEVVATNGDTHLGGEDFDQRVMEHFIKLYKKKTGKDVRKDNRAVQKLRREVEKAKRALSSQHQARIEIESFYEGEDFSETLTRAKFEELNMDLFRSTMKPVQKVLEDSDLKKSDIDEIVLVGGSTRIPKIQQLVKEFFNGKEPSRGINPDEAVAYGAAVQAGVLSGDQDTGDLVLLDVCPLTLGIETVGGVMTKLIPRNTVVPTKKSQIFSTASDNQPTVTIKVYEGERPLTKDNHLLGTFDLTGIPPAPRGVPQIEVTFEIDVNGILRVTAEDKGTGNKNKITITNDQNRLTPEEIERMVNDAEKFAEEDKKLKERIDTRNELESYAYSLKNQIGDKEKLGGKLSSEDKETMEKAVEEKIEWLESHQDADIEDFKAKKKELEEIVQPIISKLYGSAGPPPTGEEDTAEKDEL

T1 sequence (P11021 19-654): as above

Kd [1]: 2.23 µM
Kd [2]: 0.0177 µM
B1: synthetic GRP78-targeting peptide WDLAWMFRLPVG (peptide)
peptide: WDLAWMFRLPVG
notes: synthetic GRP78-targeting peptide, as described in Arap et al., 2004; That it is not a natural stretch is surmised; also called synthetic peptide; source: synthetic peptide (GL Biochem Ltd, Shanghai)
